PMC12409439 (The Journal of Biological Chemistry, 2025)

Target: the molecule itself
Assay: cryo-EM structure; Dmc1 (2.5 uM) with 0.125 uM 96-mer ssDNA in HR buffer with 1.5 mM CaCl2 and 5 mM ADP, 30 °C, 5 min, then 8 mM CHAPSO; interdigitated filaments deconvolved into single filaments; filament formation required the ssDNA

B1: Saccharomyces cerevisiae Dmc1 (natural protein, S. cerevisiae)
chain: MSVTGTEIDSDTAKNILSVDELQNYGINASDLQKLKSGGIYTVNTVLSTTRRHLCKIKGLSEVKVEKIKEAAGKIIQVGFIPATVQLDIRQRVYSLSTGSKQLDSILGGGIMTMSITEVFGEFRCGKTQMSHTLCVTTQLPREMGGGEGKVAYIDTEGTFRPERIKQIAEGYELDPESCLANVSYARALNSEHQMELVEQLGEELSSGDYRLIVVDSIMANFRVDYCGRGELSERQQKLNQHLFKLNRLAEEFNVAVFLTNQVQSDPGASALFASADGRKPIGGHVLAHASATRILLRKGRGDERVAKLQDSPDMPEKECVYVIGEKGITDSSD
notes: Dmc1, S. cerevisiae, expressed from a plasmid encoding 6XHisDmc1; Stood as a helical filament assembled with a 96-mer ssDNA, ADP, Mg2+ and Ca2+; six protomers were modelled; No removal of the His tag is described; The N-terminal end of the tag is read from the printed name 6XHisDmc1; also called Dmc1-ADP; source: E. coli BL21 (DE3) Rosetta2, purified (Talon resin, heparin sepharose)
  binding result: binds
